The target in this test is CD3 on human pan T cells (human) (UniProt P07766). As to the kind of experiment: flow cytometry, saturation binding on human pan T cells (KdT).

pKd: −log10 of the molar value.

Sequence of CD3 on human pan T cells (human) (P07766 23-207 limits assumed): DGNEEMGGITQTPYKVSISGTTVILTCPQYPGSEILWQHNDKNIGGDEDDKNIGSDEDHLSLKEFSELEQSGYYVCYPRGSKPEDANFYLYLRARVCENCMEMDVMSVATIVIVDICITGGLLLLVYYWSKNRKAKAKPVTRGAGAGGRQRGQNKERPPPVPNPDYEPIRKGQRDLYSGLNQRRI

By pKd is commonly meant the negative decadic logarithm of the Kd, by convention in mol/L. “AlexaFluor488 SP34-2 anti-CD3 (antibody)” showed a pKd of 8.25.

Values taken from patent publication US20190359711A1.
